Assay results as given in article PMC9482650, “Quantitative fragmentomics allow affinity mapping of interactomes” (Nature Communications, 2022).

T1: APBA1_1, Q02410
T1 sequence (Q02410 651-752, limits assumed, looked up): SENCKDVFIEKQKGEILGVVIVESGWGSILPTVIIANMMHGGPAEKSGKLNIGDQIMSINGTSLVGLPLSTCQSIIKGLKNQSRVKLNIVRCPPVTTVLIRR

T2: APBA1_2, Q02410
T2 sequence (Q02410 742-832, limits assumed, looked up): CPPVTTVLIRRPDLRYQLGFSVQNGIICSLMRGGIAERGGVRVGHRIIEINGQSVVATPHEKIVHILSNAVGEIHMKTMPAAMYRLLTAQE

T3: DLG3_1, Q92796
T3 sequence (Q92796 125-227, limits assumed, looked up): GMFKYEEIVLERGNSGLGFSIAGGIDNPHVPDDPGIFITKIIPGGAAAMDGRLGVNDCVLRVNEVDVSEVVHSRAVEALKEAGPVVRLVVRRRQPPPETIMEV

T4: DLG3_3, Q92796
T4 sequence (Q92796 374-475, limits assumed, looked up): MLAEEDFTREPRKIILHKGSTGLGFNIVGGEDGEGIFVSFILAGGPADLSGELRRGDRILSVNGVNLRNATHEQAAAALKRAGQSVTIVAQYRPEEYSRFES

T5: GRIP1_3, Q9Y3R0
T5 sequence (Q9Y3R0 247-346, limits assumed, looked up): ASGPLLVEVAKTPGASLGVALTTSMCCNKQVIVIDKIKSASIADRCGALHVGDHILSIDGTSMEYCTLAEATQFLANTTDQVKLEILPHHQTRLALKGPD

T6: GRIP1_5, Q9Y3R0
T6 sequence (Q9Y3R0 568-668, limits assumed, looked up): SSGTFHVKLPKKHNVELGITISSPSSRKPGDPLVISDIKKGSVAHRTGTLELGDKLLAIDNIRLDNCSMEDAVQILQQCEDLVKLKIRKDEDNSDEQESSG

T7: LNX2_2, Q8N448
T7 sequence (Q8N448 334-432, limits assumed, looked up): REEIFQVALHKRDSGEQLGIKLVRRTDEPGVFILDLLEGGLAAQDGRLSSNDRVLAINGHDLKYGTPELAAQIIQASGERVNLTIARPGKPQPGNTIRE

T8: MPP2, Q14168
T8 sequence (Q14168 180-250, limits assumed, looked up): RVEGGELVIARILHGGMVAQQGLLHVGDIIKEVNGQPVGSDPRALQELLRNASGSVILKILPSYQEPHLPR

T9: NHERF3_1, Q5T2W1
T9 sequence (Q5T2W1 4-100, limits assumed, looked up): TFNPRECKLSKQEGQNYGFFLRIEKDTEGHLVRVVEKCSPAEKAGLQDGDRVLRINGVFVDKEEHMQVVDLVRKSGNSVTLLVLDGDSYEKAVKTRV

T10: RHPN1, Q8TCX5
T10 sequence (Q8TCX5 508-602, limits assumed, looked up): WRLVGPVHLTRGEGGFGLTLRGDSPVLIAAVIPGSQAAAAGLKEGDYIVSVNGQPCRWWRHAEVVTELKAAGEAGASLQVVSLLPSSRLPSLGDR

T11: SYNJ2BP, P57105
T11 sequence (P57105 8-110, limits assumed, looked up): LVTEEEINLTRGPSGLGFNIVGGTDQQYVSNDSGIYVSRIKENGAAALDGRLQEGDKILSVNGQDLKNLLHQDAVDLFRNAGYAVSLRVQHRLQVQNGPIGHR

T12: TIAM2, Q8IVF5
T12 sequence (Q8IVF5 885-986, limits assumed, looked up): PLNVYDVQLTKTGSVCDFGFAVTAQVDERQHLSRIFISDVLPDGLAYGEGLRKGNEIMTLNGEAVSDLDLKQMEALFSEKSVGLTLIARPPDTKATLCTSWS


target: AHNAK1, Q09666; assay: holdup assay; design: key: below the threshold = too weak to quantify, mostly under pKd 3.1 to 4; details: plain residues with an end cap or a label only (N-terminal biotin on a linker: ado-ado)
Sequence (Q09666 4-100): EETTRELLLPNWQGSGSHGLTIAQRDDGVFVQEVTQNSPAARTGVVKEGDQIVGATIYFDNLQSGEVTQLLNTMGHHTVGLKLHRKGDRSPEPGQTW

Binder | pKd
SKSNFGSEPL [KIF17, Q9P2E2] | below the threshold
VRNLPESEEL [MYOZ3, Q8TDC0] | below the threshold

target: T1, APBA1_1, Q02410; assay: holdup assay; design: key: below the threshold = too weak to quantify, mostly under pKd 3.1 to 4; details: plain residues with an end cap or a label only (N-terminal biotin on a linker: ado-ado)

Binder | pKd
SKSNFGSEPL [KIF17, Q9P2E2] | below the threshold
VRNLPESEEL [MYOZ3, Q8TDC0] | below the threshold

target: T2, APBA1_2, Q02410; assay: holdup assay; design: key: below the threshold = too weak to quantify, mostly under pKd 3.1 to 4; details: plain residues with an end cap or a label only (N-terminal biotin on a linker: ado-ado)

Binder | pKd
SKSNFGSEPL [KIF17, Q9P2E2] | below the threshold
VRNLPESEEL [MYOZ3, Q8TDC0] | below the threshold

target: T3, DLG3_1, Q92796; assay: holdup assay; design: key: below the threshold = too weak to quantify, mostly under pKd 3.1 to 4; details: plain residues with an end cap or a label only (N-terminal biotin on a linker: ado-ado)

Binder | pKd
SKSNFGSEPL [KIF17, Q9P2E2] | below the threshold
VRNLPESEEL [MYOZ3, Q8TDC0] | below the threshold

target: T4, DLG3_3, Q92796; assay: holdup assay; design: key: below the threshold = too weak to quantify, mostly under pKd 3.1 to 4; details: plain residues with an end cap or a label only (N-terminal biotin on a linker: ado-ado)

Binder | pKd
SKSNFGSEPL [KIF17, Q9P2E2] | below the threshold
VRNLPESEEL [MYOZ3, Q8TDC0] | below the threshold

target: DLG4_1, P78352; assay: holdup assay; design: key: below the threshold = too weak to quantify, mostly under pKd 3.1 to 4; details: plain residues with an end cap or a label only (N-terminal biotin on a linker: ado-ado)
Sequence (P78352 62-152): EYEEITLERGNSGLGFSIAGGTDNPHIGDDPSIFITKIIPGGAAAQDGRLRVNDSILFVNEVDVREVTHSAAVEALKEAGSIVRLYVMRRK

Binder | pKd
SKSNFGSEPL [KIF17, Q9P2E2] | below the threshold
VRNLPESEEL [MYOZ3, Q8TDC0] | below the threshold

target: FRMPD2_3, Q68DX3; assay: holdup assay; design: key: below the threshold = too weak to quantify, mostly under pKd 3.1 to 4; details: plain residues with an end cap or a label only (N-terminal biotin on a linker: ado-ado)
Sequence (Q68DX3 1073-1166): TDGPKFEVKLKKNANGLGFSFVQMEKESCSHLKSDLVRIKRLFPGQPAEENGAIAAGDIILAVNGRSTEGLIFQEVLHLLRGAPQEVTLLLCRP

Binder | pKd
SKSNFGSEPL [KIF17, Q9P2E2] | below the threshold
VRNLPESEEL [MYOZ3, Q8TDC0] | below the threshold

target: GRID2IP_2, A4D2P6; assay: holdup assay; design: key: below the threshold = too weak to quantify, mostly under pKd 3.1 to 4; details: plain residues with an end cap or a label only (N-terminal biotin on a linker: ado-ado)
Sequence (A4D2P6 272-370): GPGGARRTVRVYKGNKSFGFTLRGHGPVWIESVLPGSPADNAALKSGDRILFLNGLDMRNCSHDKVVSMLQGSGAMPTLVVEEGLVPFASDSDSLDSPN

Binder | pKd
SKSNFGSEPL [KIF17, Q9P2E2] | below the threshold
VRNLPESEEL [MYOZ3, Q8TDC0] | below the threshold

target: T5, GRIP1_3, Q9Y3R0; assay: holdup assay; design: key: below the threshold = too weak to quantify, mostly under pKd 3.1 to 4; details: plain residues with an end cap or a label only (N-terminal biotin on a linker: ado-ado)

Binder | pKd
SKSNFGSEPL [KIF17, Q9P2E2] | below the threshold
VRNLPESEEL [MYOZ3, Q8TDC0] | below the threshold

target: T6, GRIP1_5, Q9Y3R0; assay: holdup assay; design: key: below the threshold = too weak to quantify, mostly under pKd 3.1 to 4; details: plain residues with an end cap or a label only (N-terminal biotin on a linker: ado-ado)

Binder | pKd
SKSNFGSEPL [KIF17, Q9P2E2] | below the threshold
VRNLPESEEL [MYOZ3, Q8TDC0] | below the threshold

target: GRIP2_4, Q9C0E4; assay: holdup assay; design: key: below the threshold = too weak to quantify, mostly under pKd 3.1 to 4; details: plain residues with an end cap or a label only (N-terminal biotin on a linker: ado-ado)
Sequence (Q9C0E4 446-548): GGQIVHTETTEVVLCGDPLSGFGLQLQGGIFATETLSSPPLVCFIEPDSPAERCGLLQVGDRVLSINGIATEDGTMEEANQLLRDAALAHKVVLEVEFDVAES

Binder | pKd
SKSNFGSEPL [KIF17, Q9P2E2] | below the threshold
VRNLPESEEL [MYOZ3, Q8TDC0] | below the threshold

target: GRIP2_5, Q9C0E4; assay: holdup assay; design: key: below the threshold = too weak to quantify, mostly under pKd 3.1 to 4; details: plain residues with an end cap or a label only (N-terminal biotin on a linker: ado-ado)
Sequence (Q9C0E4 544-642): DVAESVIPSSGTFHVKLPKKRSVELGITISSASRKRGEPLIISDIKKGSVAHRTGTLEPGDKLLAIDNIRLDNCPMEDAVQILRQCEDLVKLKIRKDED

Binder | pKd
SKSNFGSEPL [KIF17, Q9P2E2] | below the threshold
VRNLPESEEL [MYOZ3, Q8TDC0] | below the threshold

target: HTRA1, Q92743; assay: holdup assay; design: key: below the threshold = too weak to quantify, mostly under pKd 3.1 to 4; details: plain residues with an end cap or a label only (N-terminal biotin on a linker: ado-ado)
Sequence (Q92743 360-477): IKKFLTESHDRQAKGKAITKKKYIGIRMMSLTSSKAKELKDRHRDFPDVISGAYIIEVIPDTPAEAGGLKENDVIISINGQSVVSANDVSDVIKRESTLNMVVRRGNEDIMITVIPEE

Binder | pKd
SKSNFGSEPL [KIF17, Q9P2E2] | below the threshold
VRNLPESEEL [MYOZ3, Q8TDC0] | 3.84

target: IL16_3, Q14005; assay: holdup assay; design: key: below the threshold = too weak to quantify, mostly under pKd 3.1 to 4; details: plain residues with an end cap or a label only (N-terminal biotin on a linker: ado-ado)
Sequence (Q14005 1107-1207): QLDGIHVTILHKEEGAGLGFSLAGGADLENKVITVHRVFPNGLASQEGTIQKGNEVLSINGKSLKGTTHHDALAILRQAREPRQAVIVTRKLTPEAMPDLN

Binder | pKd
SKSNFGSEPL [KIF17, Q9P2E2] | below the threshold
VRNLPESEEL [MYOZ3, Q8TDC0] | below the threshold

target: Inadl_8, Q8NI35; assay: holdup assay; design: key: below the threshold = too weak to quantify, mostly under pKd 3.1 to 4; details: plain residues with an end cap or a label only (N-terminal biotin on a linker: ado-ado)
Sequence (Q8NI35 1425-1530): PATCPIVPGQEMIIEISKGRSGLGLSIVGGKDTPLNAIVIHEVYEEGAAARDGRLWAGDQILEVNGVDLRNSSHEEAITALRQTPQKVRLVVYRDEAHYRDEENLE

Binder | pKd
SKSNFGSEPL [KIF17, Q9P2E2] | below the threshold
VRNLPESEEL [MYOZ3, Q8TDC0] | below the threshold

target: T7, LNX2_2, Q8N448; assay: holdup assay; design: key: below the threshold = too weak to quantify, mostly under pKd 3.1 to 4; details: plain residues with an end cap or a label only (N-terminal biotin on a linker: ado-ado)

Binder | pKd
SKSNFGSEPL [KIF17, Q9P2E2] | below the threshold
VRNLPESEEL [MYOZ3, Q8TDC0] | below the threshold

target: MAGI1_1, Q96QZ7; assay: holdup assay; design: key: below the threshold = too weak to quantify, mostly under pKd 3.1 to 4; details: plain residues with an end cap or a label only (N-terminal biotin on a linker: ado-ado)
Sequence (Q96QZ7 1-106): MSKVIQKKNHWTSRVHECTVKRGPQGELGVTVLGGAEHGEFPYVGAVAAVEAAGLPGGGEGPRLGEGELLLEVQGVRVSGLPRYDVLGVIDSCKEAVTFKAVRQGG

Binder | pKd
SKSNFGSEPL [KIF17, Q9P2E2] | below the threshold
VRNLPESEEL [MYOZ3, Q8TDC0] | below the threshold

target: T8, MPP2, Q14168; assay: holdup assay; design: key: below the threshold = too weak to quantify, mostly under pKd 3.1 to 4; details: plain residues with an end cap or a label only (N-terminal biotin on a linker: ado-ado)

Binder | pKd
SKSNFGSEPL [KIF17, Q9P2E2] | below the threshold
VRNLPESEEL [MYOZ3, Q8TDC0] | below the threshold

target: T9, NHERF3_1, Q5T2W1; assay: holdup assay; design: key: below the threshold = too weak to quantify, mostly under pKd 3.1 to 4; details: plain residues with an end cap or a label only (N-terminal biotin on a linker: ado-ado)

Binder | pKd
SKSNFGSEPL [KIF17, Q9P2E2] | 3.94
VRNLPESEEL [MYOZ3, Q8TDC0] | 3.88

target: NOS1, P29475; assay: holdup assay; design: key: below the threshold = too weak to quantify, mostly under pKd 3.1 to 4; details: plain residues with an end cap or a label only (N-terminal biotin on a linker: ado-ado)
Sequence (P29475 9-101): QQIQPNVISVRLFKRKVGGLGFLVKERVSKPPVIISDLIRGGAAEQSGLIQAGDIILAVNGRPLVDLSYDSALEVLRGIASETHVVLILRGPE

Binder | pKd
SKSNFGSEPL [KIF17, Q9P2E2] | below the threshold
VRNLPESEEL [MYOZ3, Q8TDC0] | below the threshold

target: PDLIM1, O00151; assay: holdup assay; design: key: below the threshold = too weak to quantify, mostly under pKd 3.1 to 4; details: plain residues with an end cap or a label only (N-terminal biotin on a linker: ado-ado)
Sequence (O00151 1-87): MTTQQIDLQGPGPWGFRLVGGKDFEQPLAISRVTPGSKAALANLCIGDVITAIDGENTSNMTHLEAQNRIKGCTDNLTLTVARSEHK

Binder | pKd
SKSNFGSEPL [KIF17, Q9P2E2] | below the threshold
VRNLPESEEL [MYOZ3, Q8TDC0] | 5.23

target: PICK1, Q9NRD5; assay: holdup assay; design: key: below the threshold = too weak to quantify, mostly under pKd 3.1 to 4; details: plain residues with an end cap or a label only (N-terminal biotin on a linker: ado-ado)
Sequence (Q9NRD5 17-115): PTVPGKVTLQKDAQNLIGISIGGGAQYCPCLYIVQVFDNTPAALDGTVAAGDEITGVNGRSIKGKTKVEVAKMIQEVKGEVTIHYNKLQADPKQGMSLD

Binder | pKd
SKSNFGSEPL [KIF17, Q9P2E2] | below the threshold
VRNLPESEEL [MYOZ3, Q8TDC0] | 4.05

target: T10, RHPN1, Q8TCX5; assay: holdup assay; design: key: below the threshold = too weak to quantify, mostly under pKd 3.1 to 4; details: plain residues with an end cap or a label only (N-terminal biotin on a linker: ado-ado)

Binder | pKd
SKSNFGSEPL [KIF17, Q9P2E2] | below the threshold
VRNLPESEEL [MYOZ3, Q8TDC0] | below the threshold

target: SNX27, Q96L92; assay: holdup assay; design: key: below the threshold = too weak to quantify, mostly under pKd 3.1 to 4; details: plain residues with an end cap or a label only (N-terminal biotin on a linker: ado-ado)

Binder | pKd
SKSNFGSEPL [KIF17, Q9P2E2] | below the threshold
VRNLPESEEL [MYOZ3, Q8TDC0] | 3.71

target: T11, SYNJ2BP, P57105; assay: holdup assay; design: key: below the threshold = too weak to quantify, mostly under pKd 3.1 to 4; details: plain residues with an end cap or a label only (N-terminal biotin on a linker: ado-ado)

Binder | pKd
SKSNFGSEPL [KIF17, Q9P2E2] | below the threshold
VRNLPESEEL [MYOZ3, Q8TDC0] | below the threshold

target: T12, TIAM2, Q8IVF5; assay: holdup assay; design: key: below the threshold = too weak to quantify, mostly under pKd 3.1 to 4; details: plain residues with an end cap or a label only (N-terminal biotin on a linker: ado-ado)

Binder | pKd
SKSNFGSEPL [KIF17, Q9P2E2] | below the threshold
VRNLPESEEL [MYOZ3, Q8TDC0] | below the threshold
